This note sets out measurements from PMC4403821.

B1: ORF74-Rluc8 [Kaposi's sarcoma-associated herpesvirus (KSHV)] / β-arrestin1-eYFP [not stated] (parent)
chain 1: MGDKGTRVFKKASPNGKLTVYLGKRDFVDHIDLVDPVDGVVLVDPEYLKERRVYVTLTCAFRYGREDLDVLGLTFRKDLFVANVQSFPPAPEDKKPLTRLQERLIKKLGEHAYPFTFEIPPNLPCSVTLQPGPEDTGKACGVDYEVKAFCAENLEEKIHKRNSVRLVIRKVQYAPERPGPQPTAETTRQFLMSDKPLHLEASLDKEIYYHGEPISVNVHVTNNTNKTVKKIKISVRQYADICLFNTAQYKCPVAMEEADDTVAPSSTFCKVYTLTPFLANNREKRGLALDGKLKHEDTNLASSTLLREGANREILGIIVSYKVKVKLVVSRGGLLGDLASSDVAVELPFTLMHPKPKEEPPHREVPENETPVDTNLIELDTNDDDIVFEDFARQRLKGMKDDKEEEEDGTGSPQLNNR
chain 2: MAAEDFLTIFLDDDESWNETLNMSGYDYSGNFSLEVSVCEMTTVVPYTWNVGILSLIFLINVLGNGLVTYIFCKHRSRAGAIDILLLGICLNSLCLSISLLAEVLMFLFPNIISTGLCRLEIFFYYLYVYLDIFSVVCVSLVRYLLVAYSTRSWPKKQSLGWVLTSAALLIALVLSGDACRHRSRVVDPVSKQAMCYENAGNMTADWRLHVRTVSVTAGFLLPLALLILFYALTWCVVRRTKLQARRKVRGVIVAVVLLFFVFCFPYHVLNLLDTLLRRRWIRDSCYTRGLINVGLAVTSLLQALYSAVVPLIYSCLGSLFRQRMYGLFQSLRQSFMSGATT

Variants of B1 are the subject of the assay. In words: BRET. The conditions noted are these: with β-arrestin1-eYFP; 300 nM CXCL1 (black bar); vehicle bar ~1.00; parent: 1.14; read off a plot. In general terms: BRET reads energy transfer from a luciferase to a nearby fluorophore.
Regarding chain 2 MAAEDFLTIFLDDDESWNETLNMSGYDYSGNFSLEVSVCEMTTVVPYTWNVGILSLIFLINVLGNGLVTYIFCKHRSRAGAIDILLLGICLNSLCLSISLLAEVLMFLFPNIISTGLCRLEIFFYYLYVYLDIFSVVCVSLVRYLLVAYSTRSWPKKQSLGWVLTSAALLIALVLSGDACRHRSRVVDPVSKQAMCYENAGNMTADWRLHVRTVSVTAGFLLPLALLILFYALTWCVVRRTKLQARRKVRGVIVAVVLLFFVFCFPYHVLNLLDTLLRRRWIRDSCYTRGLINVGLAVTSLLQALYSAVVPLIYACLGALFRQRMYGLFQALRQAFMAGAAA [chain 2 S315A S319A S331A S335A S338A T341A T342A], the response amounted to 1 fold basal.
